Test results taken from patent US20210364527A1 (QUANTUM SI, published 2021).
Primed or numbered codes have the meaning given here. Ends that are not written are not given here. FITC′ = not defined here

T1: LA peptide LAKLDEESILKQK (XAKLDEESILKQK, X = L)
T1 construct: Immobilized on the biolayer interferometry sensor
T1 peptide: LAKLDEESILKQK

T2: IA peptide IAKLDEESILKQK (XAKLDEESILKQK, X = I)
T2 construct: Immobilized on the biolayer interferometry sensor
T2 peptide: IAKLDEESILKQK

T3: VA peptide VAKLDEESILKQK (XAKLDEESILKQK, X = V)
T3 construct: Immobilized on the biolayer interferometry sensor
T3 peptide: VAKLDEESILKQK

T4: F peptide FAKLDEESILKQK (XAKLDEESILKQK, X = F)
T4 construct: Immobilized on the biolayer interferometry sensor
T4 peptide: FAKLDEESILKQK

T5: ClpS from Thermosynochoccus elongatus (teClpS) (Thermosynechococcus elongatus, UniProt Q8DJY3 6-94)
T5 construct: Dye-labelled or streptavidin-complexed depending on the assay; also called Thermosynechococcus elongatus ClpS
T5 sequence: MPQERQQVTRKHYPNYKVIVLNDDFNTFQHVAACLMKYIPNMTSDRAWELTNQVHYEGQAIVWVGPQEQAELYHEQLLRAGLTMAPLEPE

T6: RA peptide (N-terminal arginine, penultimate alanine; rest of sequence not given)
T6 peptide: RAKLDEESILKQK-{FITC′}

T7: Mus musculus UBR-box domain (PS535) (Mus musculus, UniProt Q6WKZ8 98-168)
T7 sequence: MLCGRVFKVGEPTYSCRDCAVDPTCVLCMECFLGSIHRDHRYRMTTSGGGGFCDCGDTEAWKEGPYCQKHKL

T8: Kluyveromyces lactis UBR-box domain (PS528) (Kluyveromyces lactis, UniProt O60014 101-182)
T8 construct: UBR-streptavidin complex in fluorescence polarization
T8 sequence: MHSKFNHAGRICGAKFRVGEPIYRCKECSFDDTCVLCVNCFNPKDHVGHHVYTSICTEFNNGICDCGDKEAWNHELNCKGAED

T9: Saccharomyces cerevisiae UBR-box domain (PS538) (Saccharomyces cerevisiae, UniProt P19812 113-194)
T9 sequence: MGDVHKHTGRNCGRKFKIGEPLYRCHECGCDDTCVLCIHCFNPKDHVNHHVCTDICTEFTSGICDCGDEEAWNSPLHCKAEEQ

T10: Y peptide YAKLDEESILKQK (XAKLDEESILKQK, X = Y)
T10 construct: Immobilized on the biolayer interferometry sensor
T10 peptide: YAKLDEESILKQK

T11: MA
T11 chain: MAKLDEESILKQK

B1: PS545 (other)
chain: MSEPMTLPAIPQPRLKERTQRQPPYNVILLNDDDHSYEYVIAMLQVLFGYPREKGYQMAKEVDSTGRVILLTTTREHAELKQEQIHAFGPDPLMARCQGSMTAVIEPAV
B2: FITC-labeled IA peptide IAKLDEESILKQK-FITC (peptide)
peptide: IAKLDEESILKQK-{FITC′}
B3: FITC-labeled YA peptide YAKLDEESILKQK-FITC (peptide)
peptide: YAKLDEESILKQK-{FITC′}
B4: PS551 (other)
chain: MPSAAPAKPKTKRQSRTQGMPPYNVVLLDDDDHTYGYVIEMLNKVFGHPPEKGFELATEVDKNGRVIVMTTNLEVAELKRDEVHAFGPDPLMPRSKGSMSAVVERAG
B5: PS695 (Bis-PS528, Linker 3) (designed binder)
chain: MHSKFNHAGRICGAKFRVGEPIYRCKECSFDDTCVLCVNCFNPKDHVGHHVYTSICTEFNNGICDCGDKEAWNHELNCKGAEDGSAGSAAGSGEFGSAGSAAGSGEFGSAGSAAGSGEFMHSKFNHAGRICGAKFRVGEPIYRCKECSFDDTCVLCVNCFNPKDHVGHHVYTSICTEFNNGICDCGDKEAWNHELNCKGAEDGGSHHHHHHHHHHGGGSGGGSGGGSGLNDFFEAQKIEWHEGGGSGGGSGGGSGLNDFFEAQKIEWHE
notes: Single polypeptide; the entry includes the C-terminal His/bis-biotinylation tag
B6: FITC-labeled WA peptide WAKLDEESILKQK-FITC (peptide)
peptide: WAKLDEESILKQK-{FITC′}
B7: KA peptide KAKLDEESILKQK (XAKLDEESILKQK, X = K) (peptide)
peptide: KAKLDEESILKQK
notes: Biolayer interferometry single-point screen of UBR-box homologs
B8: FITC-labeled LA peptide LAKLDEESILKQK-FITC (peptide)
peptide: LAKLDEESILKQK-{FITC′}
B9: Brachionus plicatilis UBR-box domain (PS505) (other)
chain: MVCGRVFKSGEPSYFCRECGTDPTCVLCSICFRHSKHRYHKYVMMTSGGGGYCDCGDPEAWKSDPCCELHMP
B10: FITC-labeled VA peptide VAKLDEESILKQK-FITC (peptide)
peptide: VAKLDEESILKQK-{FITC′}
B11: PS370 (other)
chain: MFNSLGTVLDPKKSKAKYPEARVIVLDDNFNTFQHVANCLLAIIPRMCEQRAWDLTIKVDKAGSAEVWRGNLEQAELYHEQLFSKGLTMAPIEKT
B12: PS371 (other)
chain: MATETIERPRTRDPGSGLGGHWLVIVLNDDHNTFDHVAKTLARVIPGVTVDDGYRFADQIHQRGQAIVWRGPKEPAEHYWEQLQDAGLSMAPLERH
B13: Agrobacterium tumifaciens ClpS1 (atClpS1) (other)
chain: MIAEPICMQGEGDGEDGGTNRGTSVITRVKPKTKRPNLYRVLLLNDDYTPMEFVIHILERFFQKDREAATRIMLHVHQHGVGECGVFTYEVAETKVSQVMDFARQHQHPLQCVMEKK
notes: also called A. tumefaciens ClpS1; atClpS1 (WT)
B14: FITC-labeled FA peptide FAKLDEESILKQK-FITC (peptide)
peptide: FAKLDEESILKQK-{FITC′}
B15: RA peptide RAKLDEESILKQK (XAKLDEESILKQK, X = R) (peptide)
peptide: RAKLDEESILKQK
notes: as for B7
B16: HA peptide HAKLDEESILKQK (XAKLDEESILKQK, X = H) (peptide)
peptide: HAKLDEESILKQK
notes: as for B7
B17: PS694 (Bis-PS528, Linker 2) (designed binder)
chain: MHSKFNHAGRICGAKFRVGEPIYRCKECSFDDTCVLCVNCFNPKDHVGHHVYTSICTEFNNGICDCGDKEAWNHELNCKGAEDGSAGSAAGSGEFMHSKFNHAGRICGAKFRVGEPIYRCKECSFDDTCVLCVNCFNPKDHVGHHVYTSICTEFNNGICDCGDKEAWNHELNCKGAEDGGSHHHHHHHHHHGGGSGGGSGGGSGLNDFFEAQKIEWHEGGGSGGGSGGGSGLNDFFEAQKIEWHE
notes: as for B5

Tests used:
[1] = target: T1, LA peptide LAKLDEESILKQK …; experiment: biolayer interferometry as in Example 12
[2] = target: T2, IA peptide IAKLDEESILKQK …; experiment: biolayer interferometry as in Example 12
[3] = target: T3, VA peptide VAKLDEESILKQK …; experiment: biolayer interferometry as in Example 12
[4] = target: T4, F peptide FAKLDEESILKQK (XAKLDEESILKQK, …); experiment: biolayer interferometry as in Example 12
[5] = target: T5, ClpS from Thermosynochoccus elongatus …; experiment: fluorescence polarization, single point
[6] = target: T5, ClpS from Thermosynochoccus elongatus …; experiment: fluorescence polarization, FITC-peptide with ClpS:streptavidin complex, 23 C
[7] = target: T1, LA peptide LAKLDEESILKQK …; experiment: biolayer interferometry as in Example 12
[8] = target: T2, IA peptide IAKLDEESILKQK …; experiment: biolayer interferometry as in Example 12
[9] = target: T3, VA peptide VAKLDEESILKQK …; experiment: biolayer interferometry as in Example 12
[10] = target: T4, F peptide FAKLDEESILKQK (XAKLDEESILKQK, …); experiment: biolayer interferometry as in Example 12
[11] = target: T6, RA peptide (N-terminal arginine, …); experiment: fluorescence polarization
[12] = target: T7, Mus musculus UBR-box domain (PS535); experiment: biolayer interferometry single-point screen, 30 C
[13] = target: T8, Kluyveromyces lactis UBR-box domain …; experiment: biolayer interferometry single-point screen, 30 C
[14] = target: T9, Saccharomyces cerevisiae UBR-box domain …; experiment: biolayer interferometry single-point screen, 30 C
[15] = target: B15; experiment: BLI heatmap, single-point screen
[16] = target: T2, IA peptide IAKLDEESILKQK …; experiment: BLI heatmap
[17] = target: T3, VA peptide VAKLDEESILKQK …; experiment: BLI heatmap
[18] = target: B8; experiment: fluorescence polarization, single point
[19] = target: B2; experiment: fluorescence polarization, single point
[20] = target: B14; experiment: fluorescence polarization, single point
[21] = target: B3; experiment: fluorescence polarization, single point
[22] = target: B6; experiment: fluorescence polarization, single point
[23] = target: T1, LA peptide LAKLDEESILKQK …; experiment: BLI heatmap
[24] = target: T4, F peptide FAKLDEESILKQK (XAKLDEESILKQK, …); experiment: BLI heatmap
[25] = target: T10, Y peptide YAKLDEESILKQK (XAKLDEESILKQK, …); experiment: BLI heatmap
[26] = target: B10; experiment: fluorescence polarization, single point
[27] = target: T12, FA peptide (N-terminal phenylalanine, penultimate alanine; rest of sequence not given); experiment: binder-on-chip single-molecule assay; parameters: unit not given here
T12 construct: they may differ; Dye- or FITC-labelled in some assays; also called phenylalanine peptide; N-terminal FA peptide

[28] = target: T13, YA peptide (N-terminal tyrosine, penultimate alanine; rest of sequence not given); experiment: binder-on-chip single-molecule assay; parameters: unit not given here
T13 construct: they may differ; also called tyrosine peptide

[29] = target: T14, WA peptide (N-terminal tryptophan, penultimate alanine; rest of sequence not given); experiment: binder-on-chip single-molecule assay; parameters: unit not given here
T14 construct: they may differ; also called tryptophan peptide

[30] = target: LF peptide (N-terminal LF; rest of sequence not given); experiment: binder-on-chip single-molecule assay; parameters: unit not given here
MA = target: T11, MA; experiment: biolayer interferometry, response against 1/kdis
[31] = target: T2, IA peptide IAKLDEESILKQK …; experiment: biolayer interferometry, response against 1/kdis
[32] = target: T3, VA peptide VAKLDEESILKQK …; experiment: biolayer interferometry, response against 1/kdis

**Q.** Does B1 bind [1]?
**A.** Result: binds

**Q.** Does B1 bind [2]?
**A.** Result: binds

**Q.** Does B1 bind [3]?
**A.** Result: binds

**Q.** Does B1 bind [4]?
**A.** Result: no binding

**Q.** Does B2 bind [5]?
**A.** Result: no binding

**Q.** Does B3 bind [6]?
**A.** Result: binds

**Q.** Does B4 bind [7]?
**A.** Result: binds

**Q.** Does B4 bind [8]?
**A.** Result: binds

**Q.** Does B4 bind [9]?
**A.** Result: binds

**Q.** Does B4 bind [10]?
**A.** Result: no binding

**Q.** With B5 as the binder, how does the Kd [11] read?
**A.** Its Kd is 317 nM.

**Q.** Does B6 bind [6]?
**A.** Result: binds

**Q.** Does B7 bind [12]?
**A.** Result: binds

**Q.** Does B7 bind [13]?
**A.** Result: binds

**Q.** Does B7 bind [14]?
**A.** Result: binds

**Q.** Does B8 bind [6]?
**A.** Result: binds

**Q.** Does B9 bind [15]?
**A.** Result: binds

**Q.** Does B10 bind [5]?
**A.** Result: no binding

**Q.** Does B11 bind [16]?
**A.** Result: no binding

**Q.** Does B11 bind [17]?
**A.** Result: no binding

**Q.** Does B11 bind [18]?
**A.** Result: binds

**Q.** Does B11 bind [19]?
**A.** Result: no binding

**Q.** Does B11 bind [20]?
**A.** Result: binds

**Q.** Does B11 bind [21]?
**A.** Result: binds

**Q.** Does B11 bind [22]?
**A.** Result: binds

**Q.** Does B12 bind [23]?
**A.** Result: binds

**Q.** Does B12 bind [24]?
**A.** Result: binds

**Q.** Does B12 bind [25]?
**A.** Result: binds

**Q.** Does B12 bind [18]?
**A.** Result: binds

**Q.** Does B12 bind [19]?
**A.** Result: no binding

**Q.** Does B12 bind [26]?
**A.** Result: no binding

**Q.** Does B12 bind [20]?
**A.** Result: binds

**Q.** Does B12 bind [21]?
**A.** Result: binds

**Q.** B13 was tested. Which Mean pulse width [27] did it give?
**A.** The Mean pulse width was 0.66.

**Q.** And the “Median PW” value [27]?
**A.** The value was 0.36.

**Q.** And the Mean pulse width [28]?
**A.** Its Mean pulse width is 0.77.

**Q.** And the “Median PW” value [28]?
**A.** The value was 0.4.

**Q.** What about the Mean pulse width [29] of the same binder?
**A.** Its Mean pulse width is 0.39.

**Q.** What about the “Median PW” value [29] of the same binder?
**A.** Its value is 0.24.

**Q.** And the Mean pulse width [30]?
**A.** The Mean pulse width was 0.3.

**Q.** And the “Median PW” value [30]?
**A.** The value was 0.18.

**Q.** Does B13 bind (MA)?
**A.** Result: no binding

**Q.** Does B13 bind [31]?
**A.** Result: no binding

**Q.** Does B13 bind [32]?
**A.** Result: no binding

**Q.** Does B14 bind [6]?
**A.** Result: binds

**Q.** Does B15 bind [12]?
**A.** Result: binds

**Q.** Does B15 bind [13]?
**A.** Result: binds

**Q.** Does B15 bind [14]?
**A.** Result: binds

**Q.** Does B16 bind [13]?
**A.** Result: binds

**Q.** With B17 as the binder, how does the Kd [11] read?
**A.** The Kd was 353 nM.
